Experimental data: patent US20040002128

T1: AC-DEVD-CHO
T1 chain: DEVD

T2: CFP-YFP fusion protein, polyhistidine-tagged (bacterial version, no caspase substrate sequence)
T2 chain: SGLRSRAQASNS

T3: sensor A, polyhistidine-tagged recombinant FRET probe (bacterial version) (not fully specified)
T3 chain: SGLRSGGDEVDGGSNS

T4: sensor B, polyhistidine-tagged recombinant FRET probe (bacterial version) (not fully specified)
T4 chain: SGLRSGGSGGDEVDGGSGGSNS


Key:
AC-DEVD-CHO = target: T1, AC-DEVD-CHO
[1] = target: T2, CFP-YFP fusion protein, …
[2] = target: T3, sensor A, polyhistidine-tagged …
[3] = target: T4, sensor B, polyhistidine-tagged …
[4] = target: sensor C8, polyhistidine-tagged
[5] = target: sensor C8A, polyhistidine-tagged

| Protein | cleavage of sensor A by caspase-3, Western blot (AC-DEVD-CHO) | cleavage, Western blot [1] | emission spectrum after caspase-3 [1] | cleavage, Western blot [2] | decrease of the emission ratio of YFP/CFP [2] | dosage-dependent caspase-3 cleavage assay, normalized emission ratio (YFP/CFP) [2] | emission ratio of YFP/CFP before and after caspase-3 [2] | cleavage, Western blot [3] | decrease of the emission ratio of YFP/CFP [3] | dosage-dependent caspase-3 cleavage assay, normalized emission ratio (YFP/CFP) [3] | emission ratio of YFP/CFP before and after caspase-3 [3] | caspase-8 concentration that reduces the FRET effect by 50% (sensor 22.45 nM, one hour) [4] | caspase-8 needed for 50% FRET reduction, against sensor C8A [4] | cleavage, Western blot [4] | fraction of the sensor cleaved, band intensity on Western blot, caspase-8 216 nM, one hour [4] | caspase-8 concentration that reduces the FRET effect by 50% (sensor 22.45 nM, one hour) [5] | cleavage, Western blot [5] | fraction of the sensor cleaved, band intensity on Western blot, caspase-8 216 nM, one hour [5] |
| --- | --- | --- | --- | --- | --- | --- | --- | --- | --- | --- | --- | --- | --- | --- | --- | --- | --- | --- |
| caspase-3 (protein) SGISLDNSYKMDYPEMGLCIIINNKNFHKSTGMTSRSGTDVDAANLRETFRNLKYEVRNKNDLTREEIVELMRDVSKEDHSKRSSFVCVLLSHGEEGIIFGTNGPVDLKKITNFFRGDRCRSLTGKPKLFIIQACRGTELDCGIETDSGVDDDMACHKIPVEADFLYAYSTAPGYYSWRNSKDGSWFIQSLCAMLKQYADKLEFMHILTRVNRKVATEFESFSFDATFHAKKQIPCIVSMLTKELYFYH | In the presence of caspase-3 inhibitor (AC-DEVD-CHO), no FRET probe (sensor A) was cleaved | no cleavage was seen for CFP-YFP fusion protein under the same condition | no change for the emission spectrum was observed from the CFP-YFP fusion protein which lacks the substrate sequence | caspase-3 can cleave almost all the sensor A and sensor B protein | decreased by 4-5 fold | both FRET probes were highly sensitive to caspase-3, although sensor A appeared to be slightly more sensitive than sensor B | from 3.02 to 0.59 for sensor A | caspase-3 can cleave almost all the sensor A and sensor B protein | decreased by 4-5 fold | both FRET probes were highly sensitive to caspase-3, although sensor A appeared to be slightly more sensitive than sensor B | from 2.76 to 0.59 for sensor B | – | – | – | – | – | – | – |
| caspase-8 (protein) SESQTLDKVYQMKSKPRGYCLIINNHNFAKAREKVPKLHSIRDRNGTHLDAGALTTTFEELHFEIKPHDDCTVEQIYEILKIYQLMDHSNMDCFICCILSHGDKGIIYGTDGQEAPIYELTSQFTGLKCPSLAGKPKVFFIQACQGDNYQKGIPVETDSEEQPYLEMDLSSPQTRYIPDEADFLLGMATVNNCVSYRNPAEGTWYIQSLCQSLRERCPRGDDILTILTEVNYEVSNKDDKKNMGKQMPQPTFTLRKKLVFPSD | – | – | – | – | – | – | – | – | – | – | – | about 5-fold more caspase-8 (3.4 nM) was required to produce the same FRET reduction for sensor C8 | about 5-fold more caspase-8 (3.4 nM) was required to produce the same FRET reduction for sensor C8 | both sensor C8 and C8A could be cleaved by caspase-8 to release a CFP and a YFP molecule | only 58% of the sensor C8 protein was cleaved under the same condition | about 0.71 nM of caspase-8 was needed to reduce 50% of the FRET effect for sensor C8A | both sensor C8 and C8A could be cleaved by caspase-8 to release a CFP and a YFP molecule | 95% of the sensor C8A protein was cleaved after incubation with caspase-8 (216 nM) for one hour |
